# Experimental data: article PMC3158819 (Journal of molecular biology, 2011)
# T1: CASK CaMK domain (residues M1-A310) (human, UniProt O14936 1-310)
# T1 sequence (looked up): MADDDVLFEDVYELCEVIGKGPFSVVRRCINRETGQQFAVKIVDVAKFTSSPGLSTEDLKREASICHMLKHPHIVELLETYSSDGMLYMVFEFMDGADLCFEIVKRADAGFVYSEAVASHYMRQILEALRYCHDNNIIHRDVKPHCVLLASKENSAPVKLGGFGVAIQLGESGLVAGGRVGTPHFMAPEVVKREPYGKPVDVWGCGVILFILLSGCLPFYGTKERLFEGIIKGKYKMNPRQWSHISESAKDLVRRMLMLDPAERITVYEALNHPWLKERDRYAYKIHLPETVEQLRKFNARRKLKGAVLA
# B1: Caskin1 CID (residues I375 to G471) (domain or fragment, UniProt Q8WXD9 375-471, looked up)
# chain: IWVLRKPFAGGDRSGSISGMAGGRGSGGHALHAGSEGVKLLATVLSQKSVSESGPGDSPAKPPEGSAGVARSQPPVAHAGQVYGEQPPKKLEPASEG
# B2: Caskin1 CID-SAMs (residues I375 to L605), wild type (domain or fragment)
# chain: not shown
# Tests used:
# [1] = target: T1, CASK CaMK domain (residues M1-A310); experiment: SPR
# [2] = target: T1, CASK CaMK domain (residues M1-A310); experiment: SEC
binder,measurement,setting,value
B1,Kd,[1],7.5 ± 0.5 µM
B2,binding result,[2],binds
